The source of these data is paper PMC5810440, “The Origins of Specificity in the Microcin-Processing Protease TldD/E” (Structure(London, England:1993), 2017).

The target in data set [1] is N-terminally 6xHis-tagged E. coli TldD (pET28b, purified separately) (E. coli) (UniProt P0AGG8). Description: AUC; sedimentation equilibrium, 0.2 mg/ml protein in 50 mM Tris-HCl pH 7.5, 100 mM NaCl, 10000 rpm, 20 C, single species model.
Data set [2] addresses T1, TldD/E (purified TldD and TldE combined) (Escherichia coli, UniProt P0AGG8).
T1 construct: with Metalloprotease PmbA
T1 sequence (P0AGG8 1-481): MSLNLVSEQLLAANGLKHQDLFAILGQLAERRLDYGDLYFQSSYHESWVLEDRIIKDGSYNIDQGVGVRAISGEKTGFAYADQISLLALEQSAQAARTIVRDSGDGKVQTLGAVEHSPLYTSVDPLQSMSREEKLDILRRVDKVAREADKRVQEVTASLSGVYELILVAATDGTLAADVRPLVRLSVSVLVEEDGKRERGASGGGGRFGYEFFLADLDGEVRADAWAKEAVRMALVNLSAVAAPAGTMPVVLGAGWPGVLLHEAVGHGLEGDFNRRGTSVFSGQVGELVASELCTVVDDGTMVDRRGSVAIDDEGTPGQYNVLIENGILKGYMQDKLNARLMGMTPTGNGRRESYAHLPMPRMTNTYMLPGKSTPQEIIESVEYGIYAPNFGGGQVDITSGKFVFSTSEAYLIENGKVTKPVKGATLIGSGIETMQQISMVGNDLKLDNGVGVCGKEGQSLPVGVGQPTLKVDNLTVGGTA
T1 sequence (P0AFK0 1-450 partner): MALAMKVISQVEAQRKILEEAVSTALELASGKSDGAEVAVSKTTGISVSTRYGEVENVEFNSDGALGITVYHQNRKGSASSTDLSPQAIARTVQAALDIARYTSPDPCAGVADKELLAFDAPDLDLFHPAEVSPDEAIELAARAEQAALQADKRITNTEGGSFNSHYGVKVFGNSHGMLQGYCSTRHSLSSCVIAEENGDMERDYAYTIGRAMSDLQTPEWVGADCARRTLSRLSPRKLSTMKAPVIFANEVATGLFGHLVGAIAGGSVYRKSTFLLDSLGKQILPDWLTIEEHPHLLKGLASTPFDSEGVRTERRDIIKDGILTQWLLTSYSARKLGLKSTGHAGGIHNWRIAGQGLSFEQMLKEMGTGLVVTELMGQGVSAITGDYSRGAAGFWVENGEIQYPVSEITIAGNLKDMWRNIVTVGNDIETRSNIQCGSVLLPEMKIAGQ
Description: inhibition of angiotensin II hydrolysis. To be noted: substrate angiotensin II. The format is biochemical.

Data set [3] concerns the target T2, His-tagged E. coli TldD co-expressed with untagged TldE (pColA-Duet, MCS I) (E. coli, UniProt P0AGG8 1-481, Gly to Asp at position 401).
T2 construct: TldD of E. coli MG1655, cloned into MCS I of pColA-Duet (BamHI/HindIII); residues 2-481 seen in the crystals; Zn in the active site (grown with 50 uM ZnCl2 for crystals); also called TldD-His; His-tagged TldD; source: E. coli BL21 (DE3) Gold, co-overproduced with TldE
T2 sequence (looked up): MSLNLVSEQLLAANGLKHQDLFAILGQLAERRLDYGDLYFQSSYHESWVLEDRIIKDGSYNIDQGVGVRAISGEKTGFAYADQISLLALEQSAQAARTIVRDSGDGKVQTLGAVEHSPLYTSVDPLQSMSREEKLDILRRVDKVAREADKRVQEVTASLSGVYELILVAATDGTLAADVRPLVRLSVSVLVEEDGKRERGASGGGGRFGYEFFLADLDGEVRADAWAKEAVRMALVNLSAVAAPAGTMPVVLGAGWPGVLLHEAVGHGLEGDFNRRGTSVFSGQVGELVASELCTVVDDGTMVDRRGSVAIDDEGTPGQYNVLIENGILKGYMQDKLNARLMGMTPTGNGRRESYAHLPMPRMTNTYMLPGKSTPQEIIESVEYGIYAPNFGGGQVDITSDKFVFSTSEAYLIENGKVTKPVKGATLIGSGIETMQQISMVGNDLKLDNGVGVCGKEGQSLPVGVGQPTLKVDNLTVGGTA
Description: pull-down; Ni affinity chromatography of extracts of E. coli co-overproducing His-tagged TldD and untagged TldE; wash ~20 CV with 1 M NaCl, 50 mM imidazole, 0.1% Triton X-100; elution with 250 mM imidazole. To be noted: partners not purified.

The target in data set [4] is T3, E. coli TldD Glu263Ala mutant (subunit of the TldD^E263A/E complex) (E. coli, UniProt P0AGG8 1-481, E263A | Gly to Asp at position 401).
T3 construct: TldD of E. coli MG1655 with E263A; Gly401 to Asp was introduced into all the models; The methods say only that the mutants were made by overlap extension PCR and 'cloned and produced as described above'; also called Glu263Ala TldD mutant; source: E. coli, mutant protein complex with TldE
T3 sequence (looked up): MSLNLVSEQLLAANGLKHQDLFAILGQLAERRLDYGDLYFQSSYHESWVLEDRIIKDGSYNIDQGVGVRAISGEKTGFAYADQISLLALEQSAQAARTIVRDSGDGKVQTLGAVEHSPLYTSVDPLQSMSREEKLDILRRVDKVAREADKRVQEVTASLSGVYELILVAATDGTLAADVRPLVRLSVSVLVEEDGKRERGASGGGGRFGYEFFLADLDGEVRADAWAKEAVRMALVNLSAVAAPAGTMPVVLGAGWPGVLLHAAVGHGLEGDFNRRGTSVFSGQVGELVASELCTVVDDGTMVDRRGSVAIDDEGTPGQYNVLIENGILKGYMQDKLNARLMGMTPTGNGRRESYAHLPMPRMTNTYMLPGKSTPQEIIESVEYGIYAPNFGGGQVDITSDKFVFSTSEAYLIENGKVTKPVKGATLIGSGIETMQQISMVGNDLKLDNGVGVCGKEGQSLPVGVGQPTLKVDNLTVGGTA
Description: crystal structure; X-ray structures of the co-purified TldD/E heterodimer (wild type and TldD mutants), two heterodimers in the asymmetric unit; condition 1 (phosphate, PEG 3350) or condition 2 (PEG 1500, MMT pH 8.0), 20 C. To be noted: both partners purified.

The target of data set [5] is T4, E. coli TldD His262Ala mutant (subunit of the TldD^H262A/E complex) (E. coli, UniProt P0AGG8 1-481, H262A | Gly to Asp at position 401).
T4 construct: TldD of E. coli MG1655 with H262A; Gly401 to Asp was introduced into all the models; source: E. coli, mutant protein complex with TldE
T4 sequence (looked up): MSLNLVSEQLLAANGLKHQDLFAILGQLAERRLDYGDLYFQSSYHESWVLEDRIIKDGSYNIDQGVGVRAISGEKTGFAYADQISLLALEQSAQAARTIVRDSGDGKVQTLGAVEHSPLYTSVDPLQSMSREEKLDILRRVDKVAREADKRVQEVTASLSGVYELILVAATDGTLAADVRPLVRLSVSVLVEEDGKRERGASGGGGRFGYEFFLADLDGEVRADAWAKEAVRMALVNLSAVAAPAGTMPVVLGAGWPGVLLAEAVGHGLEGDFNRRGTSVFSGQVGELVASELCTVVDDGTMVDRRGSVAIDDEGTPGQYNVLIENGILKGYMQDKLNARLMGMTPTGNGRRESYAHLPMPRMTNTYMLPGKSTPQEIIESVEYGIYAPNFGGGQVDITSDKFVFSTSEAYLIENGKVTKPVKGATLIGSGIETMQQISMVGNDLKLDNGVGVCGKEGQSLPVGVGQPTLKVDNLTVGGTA
The description is as above. To be noted: both partners purified.

Data set [6] concerns the molecule itself. Description: AUC; sedimentation equilibrium, 0.2 mg/ml protein in 50 mM Tris-HCl pH 7.5, 100 mM NaCl, 10000 rpm, 20 C, single species model.

Broadly, the stoichiometry N is a count of units in the complex or per binding partner. Turning to “N-terminally 6xHis-tagged E. coli TldD (pET28b, purified separately) (from UniProt P0AGG8 1-481) (natural protein)”, the stoichiometry N in data set [1] is 2. Take `CCCCC[C@H](CC(=O)NO)C(=O)N[C@H](C(=O)N1CCC[C@H]1CO)C(C)C` [Actinonin]: in data set [2], the “inhibition of angiotensin II hydrolysis” value is on record as “actinonin (deformylase inhibitor) efficiently prevented angiotensin II hydrolysis by TldD/E”.

B1: untagged E. coli TldE co-expressed with His-tagged TldD (pColA-Duet, MCS II) (natural protein, UniProt P0AFK0 1-450, looked up)
chain: MALAMKVISQVEAQRKILEEAVSTALELASGKSDGAEVAVSKTTGISVSTRYGEVENVEFNSDGALGITVYHQNRKGSASSTDLSPQAIARTVQAALDIARYTSPDPCAGVADKELLAFDAPDLDLFHPAEVSPDEAIELAARAEQAALQADKRITNTEGGSFNSHYGVKVFGNSHGMLQGYCSTRHSLSSCVIAEENGDMERDYAYTIGRAMSDLQTPEWVGADCARRTLSRLSPRKLSTMKAPVIFANEVATGLFGHLVGAIAGGSVYRKSTFLLDSLGKQILPDWLTIEEHPHLLKGLASTPFDSEGVRTERRDIIKDGILTQWLLTSYSARKLGLKSTGHAGGIHNWRIAGQGLSFEQMLKEMGTGLVVTELMGQGVSAITGDYSRGAAGFWVENGEIQYPVSEITIAGNLKDMWRNIVTVGNDIETRSNIQCGSVLLPEMKIAGQ
notes: TldE (PmbA) of E. coli MG1655, cloned into the second MCS of pColA-Duet (NdeI/XhoI), untagged; residues 6-450 seen in the crystals; also called PmbA; TldE subunit; source: E. coli BL21 (DE3) Gold, co-overproduced with His-tagged TldD
In the case of B1, the binding result in data set [3], in data set [4] and in data set [5] was “binds” each time.

B2: N-terminally 6xHis-tagged E. coli TldE (pET28b, purified separately) (natural protein, UniProt P0AFK0 1-450, looked up)
chain: MALAMKVISQVEAQRKILEEAVSTALELASGKSDGAEVAVSKTTGISVSTRYGEVENVEFNSDGALGITVYHQNRKGSASSTDLSPQAIARTVQAALDIARYTSPDPCAGVADKELLAFDAPDLDLFHPAEVSPDEAIELAARAEQAALQADKRITNTEGGSFNSHYGVKVFGNSHGMLQGYCSTRHSLSSCVIAEENGDMERDYAYTIGRAMSDLQTPEWVGADCARRTLSRLSPRKLSTMKAPVIFANEVATGLFGHLVGAIAGGSVYRKSTFLLDSLGKQILPDWLTIEEHPHLLKGLASTPFDSEGVRTERRDIIKDGILTQWLLTSYSARKLGLKSTGHAGGIHNWRIAGQGLSFEQMLKEMGTGLVVTELMGQGVSAITGDYSRGAAGFWVENGEIQYPVSEITIAGNLKDMWRNIVTVGNDIETRSNIQCGSVLLPEMKIAGQ
notes: 50.5 kDa with the tag; also called His-TldE; PmbA; source: E. coli BL21 (DE3) Gold, purified (Ni-NTA)
As for B2, the “stoichiometry N” value in data set [6] was 2.
